In paper PMC7382281 (Proceedings of the National Academy of Sciences of the …, 2020):
“And” between values parts separate entries of the source, which are not always exact repeats. Equal values may be shown once. Read-outs that look alike come from different tables or passages of the source.

Legend:
[1] = target: AceI (Acinetobacter chlorhexidine efflux protein I) (Acinetobacter baumannii, UniProt P0DUT9, E15Q); experiment: native mass spectrometry of purified mutant; type: binding
[2] = target: T1, AceI (Acinetobacter chlorhexidine efflux protein I) (Acinetobacter baumannii, UniProt P0DUT9); experiment: native mass spectrometry of purified protein in detergent; type: binding
T1 construct: amino acid residues 36 to 179, with a C-terminal hexahistidine tag

[3] = target: AceR (Acinetobacter chlorhexidine efflux protein regulator) (Acinetobacter baumannii, UniProt P0DUU5); experiment: isothermal titration calorimetry (AceR^CTD); native MS titration (AceR^FL); type: binding
From the text: isothermal titration calorimetry (AceR^CTD); native MS titration (AceR^FL) on AceR (Acinetobacter chlorhexidine efflux protein regulator) | we used isothermal titration calorimetry.

[4] = target: AceI (Acinetobacter chlorhexidine efflux protein I), truncated form, residues 36 to 179 with a C-ter (A. baumannii); experiment: native MS
[5] = target: AceI (Acinetobacter chlorhexidine efflux protein I), truncated form, residues 36 to 179, with C-term (A. baumannii); experiment: native MS
[6] = target: BRIL (apocytochrome b562RIL)-fusion construct of full-length AceI (residues 1 to 179) (A. baumannii) (UniProt P0DUT9); experiment: native MS
[7] = target: BRIL (apocytochrome b562RIL)-fusion construct of truncated AceI (residues 36 to 179) (A. baumannii); experiment: native MS
[8] = target: BRIL (apocytochrome b562RIL)-fusion of full-length AceI (residues 1 to 179) (A. baumannii) (UniProt P0DUT9); experiment: native MS
[9] = target: BRIL (apocytochrome b562RIL)-fusion of truncated AceI (residues 36 to 179) (A. baumannii); experiment: native MS
[10] = target: E15Q AceI mutant (A. baumannii); experiment: native MS
[11] = target: the molecule itself; experiment: native MS
[12] = target: the molecule itself; experiment: native MS; remark: listed apart in the source
[13] = target: the molecule itself; experiment: native MS; remark: listed apart in the source
[14] = target: T2, AceRFL (BRIL-AceR full length) (Acinetobacter baumannii, UniProt P0DUU5 1-297); experiment: native MS; no chlorhexidine; one RS2 per dimer; native MS; 200 mM ammonium acetate, pH 8.0 (AceRFL-DNA); temperature not stated; conditions: protein: recombinant; tags: N-terminal BRIL (apocytochrome b562RIL) fusion; 6xHis; chain copies: 2; blunt
T2 sequence: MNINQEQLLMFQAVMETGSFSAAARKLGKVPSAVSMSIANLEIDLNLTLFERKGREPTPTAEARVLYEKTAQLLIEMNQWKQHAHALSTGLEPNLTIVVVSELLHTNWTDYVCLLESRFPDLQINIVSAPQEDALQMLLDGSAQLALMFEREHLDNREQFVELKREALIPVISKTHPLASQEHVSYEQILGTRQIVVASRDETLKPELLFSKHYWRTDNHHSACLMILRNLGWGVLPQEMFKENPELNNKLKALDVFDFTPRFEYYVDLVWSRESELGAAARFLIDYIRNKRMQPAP

[15] = target: T2, AceRFL (BRIL-AceR full length); experiment: native MS; 2 uM AceRFL, 2 uM RS1, no chlorhexidine; one RS1 per dimer; native MS; 200 mM ammonium acetate, pH 8.0 (AceRFL-DNA); temperature not stated; conditions: protein: recombinant; tags: N-terminal BRIL (apocytochrome b562RIL) fusion; 6xHis; chain copies: 2; blunt

For [H]/N=C(\N/C(=N/[H])NCCCCCCNC(=N)NC(=N)Nc1ccc(Cl)cc1)Nc1ccc(Cl)cc1 [chlorhexidine], the “native mass spectrometry of purified mutant” value [1] was “E15Q mutant and found that the binding of chlorhexidine also increased the dimer population of the mutant”, the “native mass spectrometry of purified protein in detergent” value [2] was “when tested with chlorhexidine, we observed multiple low-occupancy binding of up to three chlorhexidine molecules” and the Kd [3] was roughly 16 µM.

“AceI (Acinetobacter chlorhexidine efflux protein I), truncated form, residues 36 to 179 with a C-ter (domain or fragment)” was tested, and the Kd [4] was 5.69 µM and the stoichiometry N [4] was 2.

In the case of “AceI (Acinetobacter chlorhexidine efflux protein I), truncated form, residues 36 to 179, with C-term (domain or fragment)”, the Kd [5] is reported as 0.92 µM and the stoichiometry N [5] is reported as 2.

“BRIL (apocytochrome b562RIL)-fusion construct of full-length AceI (residues 1 to 179) (from UniProt P0DUT9 1-144) (natural protein)” was tested, and the stoichiometry N [6] was 2.

With “BRIL (apocytochrome b562RIL)-fusion construct of truncated AceI (residues 36 to 179) (domain or fragment)” the stoichiometry N [7] was 2.

Molecule “BRIL (apocytochrome b562RIL)-fusion of full-length AceI (residues 1 to 179) (from UniProt P0DUT9 1-144) (natural protein)” has a stoichiometry N [8] of 2.

With “BRIL (apocytochrome b562RIL)-fusion of truncated AceI (residues 36 to 179) (domain or fragment)” the stoichiometry N [9] was 2.

With E15Q AceI mutant (domain or fragment) the Kd [10] was 17.5 µM and 18.4 µM.

B1: AceR^FL: full-length AceR (Acinetobacter chlorhexidine efflux protein regulator) with a Bril fusion at the N terminus (natural protein)
chain: T2 sequence
notes: source: E. coli C43(DE3), purified (HisTrap-HP)
In the case of B1, the “stoichiometry N” value [11] is reported as 2 and 4 and the “stoichiometry N” value [12] is reported as 4.

B2: AceR^FL: full-length AceR (Acinetobacter chlorhexidine efflux protein regulator) with a Bril fusion at the N terminus (natural protein)
chain: T2 sequence
notes: source: expressed in high yields, purified
B2 was tested, and the “stoichiometry N” value [13] was 2 and 4.

B3: RS2 (site 2, 34 bp) (dsDNA)
DNA 1: ACTCTTCAACAAGAACTAATTATAAGTAGACAGT
DNA 2: ACTGTCTACTTATAATTAGTTCTTGTTGAAGAGT
B3: binds [14].

B4: AceR^CTD: inducer-binding domain of AceR (amino acid residues 90 to 297) (domain or fragment)
chain: GLEPNLTIVVVSELLHTNWTDYVCLLESRFPDLQINIVSAPQEDALQMLLDGSAQLALMFEREHLDNREQFVELKREALIPVISKTHPLASQEHVSYEQILGTRQIVVASRDETLKPELLFSKHYWRTDNHHSACLMILRNLGWGVLPQEMFKENPELNNKLKALDVFDFTPRFEYYVDLVWSRESELGAAARFLIDYIRNKRMQPAP
notes: as for B1
With B4 the “stoichiometry N” value [11] was 2.

B5: AceR^CTD: inducer-binding domain of AceR (amino acid residues 90 to 297) (domain or fragment)
chain: B4 chain
In the case of B5, the “stoichiometry N” value [13] is reported as 2.

B6: RS1 (site 1, 22 bp) (dsDNA)
DNA 1: TTTTTTAACTTTCTTGGACTAA
DNA 2: TTAGTCCAAGAAAGTTAAAAAA
B6: binds [15].
